Experimental data: the supplement of paper PMC7877785
± gives the uncertainty stated by the source.

Assay: self-splicing fitness, log relative to wild type (ln ratio); higher = more splicing; Tetrahymena group I intron in knt gene, E. coli kanamycin selection, DiMSum; sequences stand for … in CUCUCU…GGAGGGAAAAGUUAUCAGGCAUGCACCUGGUAGCUAGUCUUUAAACCAAUAGAUUGCAUCGGUUUAAAAGGCAAGACCGUCAAAUUGCGGGAAAGGGGUCAACAGCCGUUCAGUACCAAGUCUCAGGGGAAACUUUGAGAUGGCCUUGCAAAGGGUAUGGUAAUAAGCUGACGGACAUGGUCCUAACCACGCAGCCAAGUCCUAAGUCAACAGAUCUUCUGUUGAUAUGGAUGCAGUUCACAGACUAAAUGUCGGUCGGGGAAGAUGUAUUCUUCUCAUAAGAUAUAGUCGGACCUCUCCUUAAUGGGAGCUAGCGGAUGAAGUGAUGCAACACUGGAGCCGCUGGGAACUAAUUUGUAUGCGAAAGUAUAUUGAUUAGUUUUGGAGUACUCGUGGUCG
Procedure, shortened: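 Library with all eight P1ex-region intron nucleotides randomised, intron inside the knt kanamycin-resistance gene on pET-22b(+), in E. coli BL21(DE3). Cells grew overnight at 37°C or 30°C on LB agar with or without 25 μg/mL kanamycin (plus 100 μg/mL carbenicillin, 50 μM IPTG, 0.2% rhamnose), in six replicate transformations. Pooled colonies were amplicon-sequenced on Illumina HiSeq 2500. DiMSum fitness is the error-weighted combination of wild-type-normalised replicate fold changes, kanamycin versus none.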

Row | Sequence | self-splicing fitness (ln) (30 °C) | self-splicing fitness (ln) (37 °C)
1 | UGCCAGCAAUAUUACGGUAG | -1.89 ± 0.12 | -0.428 ± 0.11
2 | CCUUAGCAAUAUUACGAUUA | -2.28 ± 0.28 | -2.61 ± 0.32
3 | AUACAGCAAUAUUACGGAGA | -3.81 ± 0.33 | -0.736 ± 0.27
4 | UCAGAGCAAUAUUACGUCUA | -3.04 ± 0.29 | -2.35 ± 0.3
5 | CGAUAGCAAUAUUACGGAUC | -3.1 ± 0.3 | -2.6 ± 0.23
6 | CGGCAGCAAUAUUACGCCUC | -3.4 ± 0.27 | -1.59 ± 0.25
7 | GCGGAGCAAUAUUACGCGAA | – | -0.648 ± 0.23
8 | GACGAGCAAUAUUACGGACA | -1.57 ± 0.43 | -0.484 ± 0.14
9 | ACAAAGCAAUAUUACGAGGC | -2.57 ± 0.16 | -1.59 ± 0.34
10 | GUAAAGCAAUAUUACGGGUC | -1.78 ± 0.1 | -2.99 ± 0.12
11 | UAAGAGCAAUAUUACGGAUG | -2.57 ± 0.35 | -2.59 ± 0.49
12 | CGUUAGCAAUAUUACGCUUU | – | -2.41 ± 0.3
13 | ACCAAGCAAUAUUACGCUAU | -1.66 ± 0.087 | -0.775 ± 0.098
14 | CGACAGCAAUAUUACGACCC | -1.31 ± 0.19 | 0.117 ± 0.23
15 | CGGCAGCAAUAUUACGACUG | -1.74 ± 0.24 | -0.611 ± 0.26
16 | UCCGAGCAAUAUUACGAUUU | -3.56 ± 0.25 | -2.49 ± 0.44
17 | UAGUAGCAAUAUUACGCGAU | -2.23 ± 0.42 | -0.904 ± 0.3
18 | ACAUAGCAAUAUUACGAUGA | -0.75 ± 0.072 | -0.575 ± 0.086
19 | AGAGAGCAAUAUUACGGCUU | -1.65 ± 0.16 | -1.15 ± 0.25

Row | Sequence | self-splicing fitness (ln) (30 °C) | self-splicing fitness (ln) (37 °C)
20 | CUCAAGCAAUAUUACGUGUC | -3.37 ± 0.11 | -1.65 ± 0.1
21 | GCUUAGCAAUAUUACGAGGA | -0.769 ± 0.11 | -0.781 ± 0.1
22 | UAUAAGCAAUAUUACGGCAG | -0.0494 ± 0.099 | -0.0977 ± 0.14
23 | UGGAAGCAAUAUUACGCUUU | -3.64 ± 0.23 | -2.64 ± 0.28
24 | GAUAAGCAAUAUUACGUCAG | -4.56 ± 0.32 | -2.5 ± 0.23
25 | ACAAAGCAAUAUUACGGGCC | -3.9 ± 0.3 | -2.32 ± 0.24
26 | GAAGAGCAAUAUUACGAACU | -1.43 ± 0.15 | -0.479 ± 0.17
27 | AUUCAGCAAUAUUACGAGAU | -2.7 ± 0.17 | -0.722 ± 0.13
28 | UGGAAGCAAUAUUACGACAC | -2.87 ± 0.17 | -3.13 ± 0.25
29 | CUACAGCAAUAUUACGCAAA | -3.36 ± 0.24 | -3.49 ± 0.25
30 | UAAAAGCAAUAUUACGAAGU | -2.95 ± 0.29 | -2.23 ± 0.21
31 | UCUAAGCAAUAUUACGUGGG | -3.09 ± 0.19 | -1.92 ± 0.2
32 | GUCUAGCAAUAUUACGGGCC | -3.14 ± 0.36 | –
33 | AUAUAGCAAUAUUACGAACC | -1 ± 0.27 | 0.205 ± 0.24
34 | UGCGAGCAAUAUUACGACAC | -2.71 ± 0.3 | 0.803 ± 0.27
35 | GAUGAGCAAUAUUACGAUAA | -3.49 ± 0.43 | -1.6 ± 0.33
36 | GUAUAGCAAUAUUACGUAUG | -3.06 ± 0.15 | -1.93 ± 0.15
37 | GAACAGCAAUAUUACGAACG | -1.21 ± 0.1 | -0.566 ± 0.14
38 | CGGCAGCAAUAUUACGUAGC | -4.16 ± 0.36 | -3.03 ± 0.24
